Reference: paper doi:10.1101/869289 (bioRxiv, 2019)

B1: Tim10a (natural protein, human, UniProt P62072 1-90, looked up)
chain: MDPLRAQQLAAELEVEMMADMYNRMTSACHRKCVPPHYKEAELSKGESVCLDRCVSKYLDIHERMGKKLTELSMQDEELMKRVQQSSGPA
B2: Tim10b (natural protein, human, UniProt Q9Y5J6 1-103, looked up)
chain: MERQQQQQQQLRNLRDFLLVYNRMTELCFQRCVPSLHHRALDAEEEACLHSCAGKLIHSNHRLMAAYVQLMPALVQRRIADYEAASAVPGVAAEQPGVSPSGS
B3: Tim22 (natural protein, human, UniProt Q9Y584 1-194, looked up)
chain: MAAAAPNAGGSAPETAGSAEAPLQYSLLLQYLVGDKRQPRLLEPGSLGGIPSPAKSEEQKMIEKAMESCAFKAALACVGGFVLGGAFGVFTAGIDTNVGFDPKDPYRTPTAKEVLKDMGQRGMSYAKNFAIVGAMFSCTECLIESYRGTSDWKNSVISGCITGGAIGFRAGLKAGAIGCGGFAAFSAAIDYYLR
B4: Tim29 (natural protein, human, UniProt Q9BSF4 32-260, looked up)
chain: GSWARALLRDYAEACRDASAEARARPGRAAVYVGLLGGAAACFTLAPSEGAFEEALLEASGTLLLLAPATRNRESEAFVQRLLWLRGRGRLRYVNLGLCSLVYEAPFDAQASLYQARCRYLQPRWTDFPGRVLDVGFVGRWWVLGAWMRDCDINDDEFLHLPAHLRVVGPQQLHSETNERLFDEKYKPVVLTDDQVDQALWEEQVLQKEKKDRLALSQAHSLVQAEAPR
B5: Tim9 (natural protein, human, UniProt Q9Y5J7 1-89, looked up)
chain: MAAQIPESDQIKQFKEFLGTYNKLTETCFLDCVKDFTTREVKPEETTCSEHCLQKYLKMTQRISMRFQEYHIQQNEALAAKAGLLGQPR

Tests used:
Experiment in all cases: cryo-EM structure
[1] = molecular target: T1, acylglycerol kinase (AGK) (human, UniProt Q53H12 1-422)
T1 sequence (looked up): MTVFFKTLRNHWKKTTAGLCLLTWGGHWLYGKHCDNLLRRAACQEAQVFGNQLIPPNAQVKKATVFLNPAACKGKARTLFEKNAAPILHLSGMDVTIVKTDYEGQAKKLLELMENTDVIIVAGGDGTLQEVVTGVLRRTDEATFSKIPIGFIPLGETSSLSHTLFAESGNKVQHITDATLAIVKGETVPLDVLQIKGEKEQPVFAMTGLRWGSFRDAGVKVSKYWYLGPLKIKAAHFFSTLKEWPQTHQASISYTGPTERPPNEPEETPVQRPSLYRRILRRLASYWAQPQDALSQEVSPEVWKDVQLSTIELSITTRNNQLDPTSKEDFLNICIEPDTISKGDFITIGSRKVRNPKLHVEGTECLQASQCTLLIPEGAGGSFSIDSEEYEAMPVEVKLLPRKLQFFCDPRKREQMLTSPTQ

Tim22 = molecular target: B3
Tim29 = molecular target: B4
Tim10b = molecular target: B2
Tim10a = molecular target: B1

Row | Binder | binding result [1] | binding result (Tim22) | binding result (Tim29) | binding result (Tim10b) | stoichiometry N (Tim10a)
1 | B1 | binds | binds | binds | binds | 
2 | B2 | binds |  | binds |  | 
3 | B3 |  |  | binds |  | 
4 | B4 | binds |  |  |  | 
5 | B5 | binds | binds | binds | binds | 1 Tim9:Tim10a (3:3 in the hexamer)
